B1: C27 (antibody, human IgG4, V domains shown)
VH: EVQLLESGGGLVQPGGSLRLSCAASGFTLSSYAMHWVRQAPGKGLEYVSGISSNGGSTYYANSVKGRFTISRDNPKNTLFLQMSSLRAEDTAVYYCVRVKVGYRGGMDVWGQGTTVTVSS
VL: ETTLTQSPDTLPLSPGDRASLSCRASQSVSSAYLAWYQQKPGQAPRLLIYGTSRRATGVPGRFSGSGSGTDFTLTISRLEPEDFAVYYCQLYGSSSVTFGQGTKLEIK
notes: also called parent antibody C27; lead parent antibody
B2: C27-56-56 (antibody, human IgG4, V domains shown)
VH: B1 VH with S53P, N54S, G55S, G56T, G102L
VL: B1 VL with T2I, T3V, D9G, P12S, D17E, S20T, V59I, G61D, S94A
B3: C27-55-55 (antibody, human IgG4, V domains shown)
VH: B1 VH with S53P, N54T, V101G, G102R
VL: EIVLTQSPGTLSLSPGERATLSCRASQNISTAYLAWYQQKPGQAPRLLIYGTSRRATGIPDRFSGSGSGTDFTLTISRLEPEDFAVYYCQLYGTSSVTFGQGTKLEIK
B4: C27-82-58 (antibody, human IgG4, V domains shown)
VH: B1 VH with S53G, G55S, G56A, V101L, G102K
VL: B3 VL with N28D, T31S, T94A, S95T
B5: C27-24-56 (antibody, human IgG4, V domains shown)
VH: B1 VH with S53P, N54T, G55S, G102R
VL: B3 VL with N28S, I29V, T31S, T94A
B6: C27-Y2-Y2 (antibody, human IgG4, V domains shown)
VH: B1 VH with S53Y, N54S, G55S, G56A, G102R
VL: B3 VL with T5P, N28G, I29V, T31S, T94S, S95T
B7: C27-36-36 (antibody, human IgG4, V domains shown)
VH: B1 VH with S53P, N54S, G56V, G102K
VL: B3 VL with T94A, S95T
B8: C27-78-78 (antibody, human IgG4, V domains shown)
VH: B1 VH with S53P, N54S, G55S, G56A, V101S, G102K
VL: B3 VL with N28S, T94A
B9: C27-33-33 (antibody, human IgG4, V domains shown)
VH: B1 VH with N54S, G56S, G102A
VL: B3 VL with N28G, T31S, T94A, S95T
B10: C27-6-33 (antibody, human IgG4, V domains shown)
VH: B1 VH with S53P, N54S, G56S, V99S, G102R
VL: B3 VL with N28G, T31S, T94A, S95T
B11: Dupilumab (antibody, V domains shown)
VH: EVQLVESGGGLEQPGGSLRLSCAGSGFTFRDYAMTWVRQAPGKGLEWVSSISGSGGNTYYADSVKGRFTISRDNSKNTLYLQMNSLRAEDTAVYYCAKDRLSITIRPRYYGLDVWGQGTTVTVSS
VL: DIVMTQSPLSLPVTPGEPASISCRSSQSLLYSIGYNYLDWYLQKSGQSPQLLIYLGSNRASGVPDRFSGSGSGTDFTLKISRVEAEDVGFYYCMQALQTPYTFGQGTKLEIKR
B12: C27-58-58 (antibody, human IgG4, V domains shown)
VH: B1 VH with S53P, N54S, G55S, G56N, G102R
VL: B3 VL with N28D, T31S, T94A, S95T
B13: C27-67-67 (antibody, human IgG4, V domains shown)
VH: B1 VH with S53P, N54T, G55S, G56A, V101G, G102R
VL: B3 VL with N28G, I29V, T31S, T94R
B14: C27-54-54 (antibody, human IgG4, V domains shown)
VH: B1 VH with S53H, N54S, G56T, K100R, G102L
VL: B3 VL with N28D, I29V, T31S, T94A, S95T
B15: C27-53-53 (antibody, human IgG4, V domains shown)
VH: B1 VH with K100F, G102R
VL: B3 VL with N28D, I29A, T31N, T94S
B16: C27-52-52 (antibody, human IgG4, V domains shown)
VH: B1 VH with N54S, G56S, V101P, G102A
VL: B3 VL with N28G, I29V, T94A, S95T

Numbering of substitutions follows the chain as printed.

In one test the target is T1, recombinant human IL-4Rα (extracellular domain, tagged) (human, UniProt P24394 26-232).
T1 construct: it is written second here only for want of that; also called hIL-4Rα; not shown: His-tag or other conventionally used tag
The experiment in a line: SPR, Biacore T200; antibody (human IgG4) on the sensor chip, human IL-4Rα at 0.625-12.5 nM. As to the method: The binding affinity of the anti-IL-4Rα antibodies (reformatted as human IgG4) to human IL-4Rα was characterized using Biacore T200 (GE). The full-length anti-IL-4Rα antibodies were stabilized on sensor chip CMS. The affinities for human IL-4Rα at various concentrations were measured. […] Using the SPR technology, the association and dissociation rates were measured, and binding affinity was determined.
On the technique in general: SPR reads the build-up and loss of mass on a sensor chip optically.
Take B1: the Kd is 17.6 nM, the koff stood at 0.0127 s⁻¹ and the kon was 719000 M⁻¹ s⁻¹.
In the same order, the values of B2 are 2.38 nM, 0.000201 s⁻¹ and 84500 M⁻¹ s⁻¹.
The like results for B3 were, in that order, 2.47 nM, 0.000379 s⁻¹ and 154000 M⁻¹ s⁻¹.
The like results for B4 were, in that order, 3.67 nM, 0.000557 s⁻¹ and 152000 M⁻¹ s⁻¹.
With B5, the Kd was determined as 1.86 nM, the koff was 0.000173 s⁻¹ and the kon came out at 92700 M⁻¹ s⁻¹.
As to B6, the Kd came to 5.6 nM, the koff came to 0.00078 s⁻¹ and the kon came to 139000 M⁻¹ s⁻¹.
The like results for B7 were, in that order, 2.56 nM, 0.000351 s⁻¹ and 137000 M⁻¹ s⁻¹.
The like results for B8 were, in that order, 3.62 nM, 0.000416 s⁻¹ and 115000 M⁻¹ s⁻¹.
The like results for B9 were, in that order, 3.74 nM, 0.000447 s⁻¹ and 119000 M⁻¹ s⁻¹.
For B10, the Kd worked out at 2.12 nM, the koff was determined as 0.00017 s⁻¹ and the kon turned out to be 80400 M⁻¹ s⁻¹.

The target in another test is T2, human IL-4Rα on cells (human, UniProt P24394 26-825). Kind of test: cell-based or functional assay.
Turning to B11, the “IC50(nM), neutralization of hIL-4 (1.2 ng/ml), HEK-Blue IL-4/IL-13 STAT6-SEAP reporter cells” value stood at 0.165 nM.
Still for that read-out and setting: the figure for B1 is 17.9 nM.
Same read-out and setting: the figure for B12 is 0.41 nM.
Same read-out and setting: the figure for B13 is 0.076 nM.
On to B14, for which the “IC50(nM), neutralization of hIL-4 (1.2 ng/ml), HEK-Blue IL-4/IL-13 STAT6-SEAP reporter cells” value worked out at 0.34 nM.
Same read-out and setting: for B15 the value was 0.293 nM; for B16, 0.476 nM; for B2, 0.15 nM.
As to B3, the “IC50(nM), neutralization of hIL-4 (1.2 ng/ml), HEK-Blue IL-4/IL-13 STAT6-SEAP reporter cells” value is 0.0853 nM.
For the molecule B4, the “IC50(nM), neutralization of hIL-4 (1.2 ng/ml), HEK-Blue IL-4/IL-13 STAT6-SEAP reporter cells” value was 0.283 nM.
Same read-out and setting: for B5 the value was 0.0632 nM.
Same read-out and setting: the figure for B6 is 0.138 nM; for B7 it is 0.125 nM.
With B8, the “IC50(nM), neutralization of hIL-4 (1.2 ng/ml), HEK-Blue IL-4/IL-13 STAT6-SEAP reporter cells” value was determined as 0.103 nM.
Still for that read-out and setting: for B9 the value was 0.195 nM; for B10, 0.0537 nM.

For the next test, the target named is T2, human IL-4Rα on cells. Kind of test: cell-based or functional assay. This is another data set of the same source.
In the case of B11, the “IC50(nM), inhibition of IL-13 (10 ng/mL) dependent TF-1 cell proliferation” value is 0.301 nM.

A further test concerns the target T3, IL-4R with mouse Fc-tag (human, UniProt P24394 26-232).
T3 construct: not shown: mouse Fc-tag
Kind of test: competitive ELISA: antibody dilutions with 0.5 µg/mL IL-4R-mouse Fc on plate-captured biotinylated IL-4, anti-mouse-Fc-HRP. The procedure:
Competitive ELISA: The second assay was designed to identify the anti-IL-4Rα antibodies that were capable of inhibiting the binding of hIL-4 to hIL-4Rα, as measured by competitive ELISA. Briefly, a 96-well plate was coated with 100 μL, 2.5 μg/mL SA (Streptavidin) solution, and incubated overnight at 4° C., followed by washed with TBST. Biotinylated IL-4 with the final concentration of 2 μg/mL was added into the plate and incubated at 37° C. for 1 hour. Then the plate was washed with TBST. The anti-IL-4Rα antibody samples were first diluted to 10 μg/mL, and 1004, of the sample was added to the first row of wells. 10 μg/mL anti-IL-4Rα antibody samples were then serially diluted at a 1:2 ratio and added to each of the remaining rows of wells. 504 of 0.5 μg/mL IL-4R with mouse Fc-tag was added to each well. After incubating for 1 hour at 37° C., the wells were washed with TBST 6 times. 100 µL of anti-mouse-Fc-HRP (1:10,000) was then added to each well and incubated for 1 hour at 37° C. The wells were washed with TBST 6 times before adding 1004/well of TMB, and incubated for 5-10 minutes at 37° C. 2M H₂SO₄ was used to stop the reaction. The ELISA results (OD450) were read, and the binding curves were generated by GraphPad Prism 5 software (GraphPad Software). Reference antibody Dupilumab (Regeneron, anti-IL-4Rα antibody) and AMG317 (Amgen, anti-IL-4Rα antibody) were used as positive controls, Human IgG4, kappa Isotype Control (Cat #HG4K, Sino Biological Inc.) was used as negative control, abbreviated as Human IgG4 in FIG. 1.
(In general: An ELISA detects its analyte on a solid surface through an enzyme-linked reagent.)
Turning to B11, the IC50 worked out at 0.0838 µg/mL.
On the same count and under the same terms, for B5 the value was 0.0632 µg/mL; for B10, 0.0781 µg/mL.

A further test concerns the target T2, human IL-4Rα on cells. Kind of test: cell-based or functional assay. This is another data set of the same source.
Turning to B11, the “IC50(nM), inhibition of hIL-13 (20 ng/mL) dependent CD23 upregulation on B cells in human PBMCs” value worked out at 2.8 nM.

A further test has as its target T2, human IL-4Rα on cells. The experiment in a line: cell-based or functional assay. This is another data set of the same source.
With B11, the “IC50(nM), inhibition of TARC release in human PBMCs induced by hIL-13 (200 ng/mL)” value amounted to 0.0323 nM.

The target in a further test is T2, human IL-4Rα on cells. Kind of test: cell-based or functional assay. The source holds these as a separate data set.
For B11, the “IC50(nM), neutralization of hIL-13 (4 ng/ml), HEK-Blue IL-4/IL-13 STAT6-SEAP reporter cells” value came out at 0.136 nM.
Same read-out and setting: for B5 the value was 0.0482 nM.
Still for that read-out and setting: for B10 the value was 0.0446 nM.

For another test, the target named is T2, human IL-4Rα on cells. Kind of test: cell-based or functional assay. This is another data set of the same source.
Consider B11, for which the “IC50(nM), inhibition of hIL-4 (1 ng/mL) dependent CD23 upregulation on B cells in human PBMCs” value was found to be 0.119 nM.

A further test addresses T2, human IL-4Rα on cells. The experiment in a line: cell-based or functional assay. This is another data set of the same source.
Consider B11, for which the “IC50(nM), inhibition of TARC release in human PBMCs induced by hIL-4 (32 ng/mL)” value is 0.63 nM.

A further test has as its target T2, human IL-4Rα on cells. Kind of test: cell-based or functional assay. This is another data set of the same source.
As for B11, the “IC50(nM), inhibition of IL-4 (2 ng/mL) dependent TF-1 cell proliferation” value was found to be 0.253 nM.

One may read the Kd as the constant that tells how readily two partners part at equilibrium. A word on the koff: it is a measure of how fast the partners let go of each other. For orientation: kon means the rate constant with which the complex forms. By IC50 is commonly meant the concentration at which inhibition is half-maximal. Lower therefore signals higher potency.

Source of the values: patent US20230374144A1 (STAIDSON BEIJING BIOPHARMACEUTICAL, published 2023).
